Patent US7005258 (NATIONAL INSTITUTES OF HEALTH, dated 2006)

Molecular target: T1, human cdc2 (p34^cdc2, endogenous, HeLa cells) (human, UniProt P06493 1-297)
T1 construct: On p13 beads it is present as cdc2/cyclin B; also called p34^cdc2 kinase
Test: precipitation on p13 beads from HeLa lysate

T1 sequence (P06493 whole entry): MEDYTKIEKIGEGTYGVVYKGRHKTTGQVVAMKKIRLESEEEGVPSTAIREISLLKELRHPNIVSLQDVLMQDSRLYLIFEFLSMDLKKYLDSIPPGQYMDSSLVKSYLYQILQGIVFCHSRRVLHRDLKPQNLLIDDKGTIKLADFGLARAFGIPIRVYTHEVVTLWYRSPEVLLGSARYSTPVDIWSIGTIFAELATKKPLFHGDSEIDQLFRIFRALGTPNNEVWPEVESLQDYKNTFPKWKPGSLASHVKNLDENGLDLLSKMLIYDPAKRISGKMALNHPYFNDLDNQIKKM

B1: p13 protein encoded by the suc1 gene (other, fission yeast, UniProt P08463 1-113, looked up)
chain: MSKSGVPRLLTASERERLEPFIDQIHYSPRYADDEYEYRHVMLPKAMLKAIPTDYFNPETGTLRILQEEEWRGLGITQSLGWEMYEVHVPEPHILLFKREKDYQMKFSQQRGG
notes: also called p13-Suc1; p13 (Sucl)
- binding result: binds
